# Measured values: the DeepSol protein solubility set
# Assay: soluble on expression in E. coli; label from the status in PepcDB or PDB records
row,Sequence,soluble on expression in E. coli
1,MKKVAIVGLGWLGMPLAMSLSARGWQVTGSKTTQDGVEAARMSGIDSYLLRMEPELVCDSDDLDALMDADALVITLPARRSGPGDEFYLQAVQELVDSALAHRIPRIIFTSSTSVYGDAQGTVKETTPRNPVTNSGRVLEELEDWLHNLPGTSVDILRLAGLVGPGRHPGRFFAGKTAPDGEHGVNLVHLEDVIGAITLLLQAPKGGHIYNICAPAHPARNVFYPQMARLLGLEPPQFRNSLDSGKGKIIDGSRICNELGFEYQYPDPLVMPLELEHHHHHH,not soluble
2,MKKVGVVIPIYNVEKYLKECLDSVINQTYTNLEIILVNDGSTDENSLNIAKEYTLKDKRIILFDKKNGGLSSARNVGIEYFSGEYETQYIEKENELNVFKIIGDNPQNIYKIYKYKNALASDKLEISKIDYIIFLDSDNYWELNCIEECVVRMQNVDVLWFDHACIYDDGIEDKGQKTRMNVFNFTQECTITPRDYAKQAIKVGSRDISFSWGGMIDFSFLKQLKLKFINKIINEDIHFGMVLFASADSIYILPKRLYLCRLRANSISNHDKKVTKANVSEYFKDLYEFFGENAKEAKNYLKAASRMITALELIEFFKDQKNENSQAIKEAFLPFYVKKALMIKKFKKDPLNLKEKLPIIKPFIQTKIPYDLWKIWQKIKGILDKINFAK,soluble
3,MKKVIKKYFFLALAIIMYSCNEDEKYDILERYTPETITSDEIAPVLNLQAQYMDSNSEIVLVTWMNPEDDFLSKVEISCCSANDNLLGEPVLLDAVSTKVGSYQTSLSVEERGYVKIVAINEKGVRSEARTAEILSSQQDFVYRADCLMSSVIELFFGGRYNAWNENYPNATGPYWDGIAAVWGQGAAYSGFVTMYKVTKETNNEKLRAKYAEKEETFLNSIDIFLNNGSGRKSFAYGTYIGPNDERYYDDNVWIGIEMANLYELTGNEVYLQHANTVWNFILEGIDDVTGGGVYWKEGAVSKHTCSTAPAAVMALKLYQLSKNESYLEIAKSLYSYCKDVLQDPNDYLFYDNVRLSDPSDKNSELKVSKDKFTYNSGQPMLAAAMLYRITKEEQFLKDAQNIAQSIYKKWFKNYHSSILDRDIMILSDPNTWFNAVMFRGFVELYKIDKNDVYVKAVKNTMEHAWQSNCRNRLTNLMSDDYAGDKKEGKWNIKTQGAFVEIFSLIGELEQLGCFQELEHHHHHH,not soluble
4,MKKVNLAVVGATGMVGRTFIKVLEERNLPIDNIYFFSSSRSAGSTVTFNNKEYVVEELTETSFDRGIDIALFSAGASVSEKFAPIAASKGCVVVDNSSCWRMNEKVPLVVPEVNPQDISCHQGIIANPNCSTIQAVVVLKPLHDKYKIKRIVYSTYQAVSGAGHNGYMDLENGLKGEPPKKFPHPIAGNCLPHIDSFLPNGYTKEEMKMVNETRKILGDYSIRITATTVRVPVFNGHSESINVEFEKQFDLEELKEVLRNAPGVVVQDDVANNVYPMPIYASGRDETFVGRIRRDESVESGVNLWVVADNIRKGAATNAVQIAEELIKMWNK,soluble
5,MKKVYFATKADVERLHSFFGQANKKDDKINELYAQFMILEEAEEIRAVIGYEQSGEDVLIRSCLFTPHVDKQTFLYFFEMFLQYMKEKSVQQLYLLTNHPQSVPIFQFFDFFTIEKDEVPEGIQQLEHFCKNIKEQNAIILNCQLFTKLSTD,not soluble
6,MKKVYFNHDGGVDDLVSLFLLLQMDNVELTGVSVIPADCYLEPAMSASRKIIDRFGKNTIEVAASNSRGKNPFPKDWRMHAFYVDALPILNESGKVVTHVAAKPAHHHLIETLLQTEEKTTLLFTGPLTDLARALYEAPIIENKIKRLVWMGGTFRTAGNVHEPEHDGTAEWNSFWDPEAVARVWEANIEIDLITLESTNQVPLTIDIREQWAKERKYIGIDFLGQCYAIVPPLVHFAKNSTYYLWDVLTAAFVGKADLAKVQTINSIVHTYGPSQGRTVETDDGRPVHVVYDVNHDRFFDYITRLAKKVST,soluble
7,MKKVYLFKLKFNTPYGLRVGGPKEDISTLTPLKIGQHYVIPSSSWKGIFRRTTEVLITNPNHFRGHEGEDVTDDGSLDELLEAKGLENKNDENVRKERKRFIAMWNCPVERLYGSEYFASAVTFSDTLIDAEINQRTHVVIDRKTRKSEEKHLYSEQIVNVNSVRVKVIVRDRIDDWIKTLKFLSEFGTFVGGGKSRGIGYAVLDWKESEYAEVDGLTRKIMFKPLDELKL,soluble
